This assay concerns the target T1, MBP-SnRK2.3 (Arabidopsis thaliana, UniProt Q39193 1-361).
T1 construct: SnRK2.3 (SnRK2I) of Arabidopsis thaliana; ORF cloned into pMAL-c2x; pMAL-c2x places MBP at the N-terminus (surmised from the vector); also called SnRK2.3-MBP; source: E. coli BL21, purified (Amylose Resin)
T1 sequence (looked up): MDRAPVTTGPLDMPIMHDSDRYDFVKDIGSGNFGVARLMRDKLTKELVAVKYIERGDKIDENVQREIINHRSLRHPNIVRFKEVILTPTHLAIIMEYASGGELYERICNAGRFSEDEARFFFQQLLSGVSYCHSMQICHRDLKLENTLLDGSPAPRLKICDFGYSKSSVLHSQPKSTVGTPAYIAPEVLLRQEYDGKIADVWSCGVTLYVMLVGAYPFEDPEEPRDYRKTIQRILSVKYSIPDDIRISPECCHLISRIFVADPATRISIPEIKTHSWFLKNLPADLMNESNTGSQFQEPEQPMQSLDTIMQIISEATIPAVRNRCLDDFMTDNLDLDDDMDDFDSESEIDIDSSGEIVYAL
Briefly: pull-down; AtPP2-B11-GST held on GST beads, incubated with MBP-SnRK2s 2 h at room temperature or 4°C overnight; washed four times; anti-MBP blot. Conditions: both partners purified.

B1: GST-AtPP2-B11 (natural protein, Arabidopsis thaliana, UniProt Q949S5 1-257, looked up)
chain: MNNLPEDCIAKILSLTTPLDVCRLSAVSSIFRSAAGSDDVWNHFLPADFPAGFAAPAGLPTRKQLFFSLVDNPLLINGTLLSFSLERKSGNKCYMMAARALNIVWGHEQRYWHWISLPNTRFGEVAELIMVWWLEITGKINITLLSDDTLYAAYFVFKWNHSPYGFRQPVETSLVLADTESTDNVVQPSMISLMQDSGGEEGQSPVLRRDGWYEVELGQFFKRRGDLGEIEMSLKETKGPYEKKGLIVYGIEIRPVP
notes: AtPP2-B11, F-box protein of Arabidopsis thaliana, 257 amino acids; ORF cloned into pGEX-4T-1; pGEX-4T-1 places GST at the N-terminus (surmised from the vector); also called AtPP2-B11-GST; source: E. coli BL21, purified (Glutathione Agarose)
On to B1, for which the binding result is “binds”.

The values are drawn from publication PMC5560758, “SCF^AtPP2-B11 modulates ABA signaling by facilitating SnRK2.3 degradation in Arabidopsis thaliana” (PLoS Genetics, 2017).
